The source of these data is the DeepSol protein solubility set.

The nature of the data set: soluble on expression in E. coli; label from the status in PepcDB or PDB records.
With “MDTEKLMKAGEIAKKVREKAIKLARPGMLLLELAESIEKMIMELGGKPAFPVNLSINEIAAHYTPYKGDTTVLKEGDYLKIDVGVHIDGFIADTAVTVRVGMEEDELMEAAKEALNAAISVARAGVEIKELGKAIENEIRKRGFKPIVNLSGHKIERYKLHAGISIPNIYRPHDNYVLKEGDVFAIEPFATIGAGQVIEVPPTLIYMYVRDVPVRVAQARFLLAKIKREYGTLPFAYRWLQNDMPEGQLKLALKTLEKAGAIYGYPVLKEIRNGIVAQFEHTIIVEKDSVIVTQDMINKST”, the “soluble on expression in E. coli” value is recorded as “soluble”.

As to “MGSDKIHHHHHHMDIKQLRYFVEVARREHISDAALELNIAQSAISRQITQLEKELGVTLFKRSGRNIILTVEGRQLLSQATQILELMDKTIHSFQQHVSHNQQTIYIGYEESDASQMILPLIQTFEQQSNSTMIPQLTKHDKLLDQILSNQLDLAITEFTPVLERETHLRVMPLFEENYYMYVPKSHPLAMTVHPPLSQFTNQSLYCLEPMTSSIKSKLIEKTKAQVRMISDMKLAQHILSHNKGFIISSQNSLLYDHVNWTKIPLNHTELKRMLCVVMRKDNKKNDINIAWNLICTLLNKSTIY”, the “soluble on expression in E. coli” value is “not soluble”.

For the sequence “MKKKDRYTISELAREFEISTRTIRYYEEIGLLNPERTPGNQRIFSRKDRAKLKLILRGRRLGFSLEEIREMIEMYDVAGEPEQIRLTLKYGEKKLKEIEEKIRELELLKEDLLNLREMLVKRLEELEKGS”, the “soluble on expression in E. coli” value is on record as “not soluble”.

Consider “MIRLSEQSPLGTGRHRKCYAHPEDAQRCIKIVYHRGDGGDKEIRRELKYYAHLGRRLKDWSGIPRYHGTVETDCGTGYVYDVIADFDGKPSITLTEFAEQCRYEEDIAQLRQLLKQLKRYLQDNRIVTMSLKPQNILCHRISESEVIPVVCDNIGESTLIPLATWSKWCCLRKQERLWKRFIAQPALAIALQKDLQPRESKTLALTSREA”, for which the “soluble on expression in E. coli” value is recorded as “soluble”.

For the sequence “MKTNFKQKIIEQARSEGLQVTALREQVLDIVLQQSGVIKAYNVLSQMQQQSEGVLAPPTAYRALDFWAEQGVLHKVAAVNGYILCSHAQHECDDHCHDHEEAEAHHSAFILVCTECGTADEQTLSHEWAALRAGVAESGFALKEEHVVLTGICKKCQQ”, the “soluble on expression in E. coli” value is “not soluble”.

On to “MSLSSRNSTPLRQFGYEFFMTPLDVSKLVLPVSENYKLGPGDEVIIYIVGLPSNQEIPPVIKTIVDREGNISIPNLGVFNVWGLTLKETEELLRQELGLDLKVTVGEIRTFVIYVAGEVNRPGTHVATAVNTVIDALSIAGGVKKTGSLRNIILTRKTPSGLKTYNIDLYDVFIKGKPIDLTLRDGDTILVKPIGPTVAIAGEVKRPAIYEIKGGETIKDLIELAGGLLPSSYQYKVILQRYENGKLRIIEDSLTNKAFMNENLRDGDLVLIKKSADIPENSYSIEGYVTLPGVYEYKEGLKLSDILNPDLFFKDTNLKFAVLVRQYPKGSIPKYIAFSPEKVLTGKEDMELKPYDRLIFFKLGQSEGHHHHHH”, for which the “soluble on expression in E. coli” value was “soluble”.

In the case of “MGSDKIHHHHHHMLKRIATSLLDIAYDEQGNADGWPVVLLHGFPYDIHAYDAVTPRLTSQGARVITPYLRGYGPTRFLAPTTLRSGQQAALGADLLALLDALQIGQAVLGGYDWGGRAACIVAALYPSRARGLVSVNGYNIQNIAAASQPADPEKEYRMWYQYYLHGERGRAGLTENRREFCRLLWSLWSPTWHFGDDTYARSAAAFDNPDFVDVVVHSYRHRFGLVDGDPQFDDIERRLSAMPPITVPAITLEGDADGVSPPGGRQANSQRFTGRHQNRVVPNAGHNLPQEAPGAFADAVLDINAWAARRSCACGD”, the “soluble on expression in E. coli” value is listed as “not soluble”.

“MAQKILVEQVVKRKAIVVQPKDTVDRVAKILSRNKAGSAVVMEGDEILGVVTERDILDKVVAKGKNPKEVKVEEIMTKNPVKIEYDYDIEDVIELMTEKGVRRVLVTKFGKPIGFVTAADILAALASHNHEEEEEEREEESEVYGICEVCGQYGALYKVYHEGRELWVCETCKDLIEGR”: the “soluble on expression in E. coli” value was “soluble”.

Regarding “MQVELIIKNLKVYNSYFKKFIKSDVLINEGKFLHIGKGYEDRLWSENIIDGEDKYIIPGLIDIHMHIESSMTIPREFSKAAIKHGVTTVVADPHEIANVFGVRGIEEFIKFKGNLDIFYGILEHHHHHH”, the “soluble on expression in E. coli” value is “not soluble”.

For the sequence “MIFLNRERKGETNDHFDVNRVKFDDLGIPQDTGGLNRIRFKGENLGIMPTQLGHITPWLYRHFEYAYHVALQFNQHQKFQKLQKLRKLQKELPIAERAGEIVELLKTNQVLIVAGDTGCGKSTQVPQYLLKAGFTGVACTQPRRIACTALARRVAYETLNQYGSEVAFQIRFETTKSQKTKLLFLTEGLLLRQMEKDSLLEKYNVIILDEVHERHLTSDLLIGLLRDLCTKRDDLKLILMSATINLDLFKGYFEGAPVVQVPGRLFPIDVRWHPIKQFIDQSDKKTHKIDPEPYLKILELIDKQFPSTQRGDALIFLNGVAEISMVAEHLKNYAELTNGWIILMLHSTLSVEEQDKVFDQAPVGIRKCILSTNVAETSVTIDGIRFVIDSGKVNLIKHEPGTGTQKLTEFWVSKASANQRKGRAGRTGPGICYRLYSQEQFEKMDDFTVSEINRVSLQEMALKMISLNLGLDPRTFPFIEKPSEDVLNEGLEVLKFQRVLRSDRGDILTLTALGNMVSKLPVEVPIAKMLVYGCVVDELEVMLTVAAGLSVQSPFTNRSYRELEIVERRASLTSPLGDPFTLISIFREWVLQKAFEGTARRWTMENGIDEHRLYEISKLRAQYRQILEDAGLVEKASAAETGEDDSRQRRIDQGEKRKLFDLKKSQRNNDRRQKVLNANKHFDKILEDKEEEDLEAEKDPLKADVKTVEFLLSHKQRDVENIRKTHKISRKTAEVVRVIIAAGLYPNFSILDPVNKYGYGQEMFTHTRLKPFTQIHPNSSIAQYHPETIDPRQGSDGFSRLHQIPFYGLLLETTKPYICNVMPVPAVYTLLVAQKIVIEDDWSQLSIDDFLELRFRSSTDCRSVLLDAKEIRYELTKGLAAKLVGEAGFSGRRRLAKYIDLLNQSIVEKGIEVAVRRNVHPPKVLTGIGIHSPDGGIDKEEDVDDLVQRFERDQEPVHSAREEELEDQKVLDELRADVMCPPTRDMIEEAEKLKELKKKEIPKESYYEKLLKRQKAKEDDEKTEKKPKLEPLDTMEE”, the “soluble on expression in E. coli” value was “soluble”.

“MSLLACCAIYSPVRCAFPYTETERRFTCKRRIFRIILTLCGRENMKIRALLVAMSVATVLTGCQNMDSNGLLSSGAEAFQAYSLSDAQVKTLSDQACQEMDSKATIAPANSEYAKRLTTIANALGNNINGQPVNYKVYMAKDVNAFAMANGCIRVYSGLMDMMTDNEVEAVIGHEMGHVALGHVKKGMQVALGTNAVRVAAASAGGIVGSLSQSQLGNLGEKLVNSQFSQRQEAEADDYSYDLLRQRGISPAGLATSFEKLAKLEEGRQSSMFDDHPASAERAQHIRDRMSADGIKEGGSHHHHHH”: the “soluble on expression in E. coli” value is “soluble”.

With “MAHHHHHHMEDGVIISGDYIQMEKDKVKRINEHNFEQVHDVESDNLYRSKCSGILLKTPYYPYKYDIMNTSYKYMPKVGDLVIGIVKSKKLDYYQMDINCNCECIIHKIESFKYATKNSFPNLANGTLLYMIVEKINLDNNSVVASCINSSDVKSWINYENYLGELVDGYMFPVSISYAKSLIGDKCYLLDLIGADVSYEVAVGHNGR”, the “soluble on expression in E. coli” value is reported as “not soluble”.

Regarding “GEVASVPLTNYLDSQYFGKIYLGTPPQEFTVLFDTGSSDFWVPSIYCKSNACKNHQRFDPRKSSTFQNLGKPLSIHYGTGSMQGILGYDTVTVSNIVDIQQTVGLSTQEPGDVFTYAEFDGILGMAYPSLASEYSIPVFDNMMNRHLVAQDLFSVYMDRNGQESMLTLGAIDPSYYTGSLHWVPVTVQQYWQFTVDSVTISGVVVACEGGCQAILDTGTSKLVGPSSDILNIQQAIGATQNQYGEFDIDCDNLSYMPTVVFEINGKMYPLTPSAYTSQDQGFCTSGFQSENHSQKWILGDVFIREYYSVFDRANNLVGLAKAI”, the “soluble on expression in E. coli” value is “soluble”.

Regarding “QHLNALMNKEILGKKPGKKKKDKTKRPVLYVIDFSGDIKATQVEQLRDEVTSVLSIAKPEDEVLVRLESPGGAVNGYGLAASQLQRIRDKKIPLTVSIDKMAASGGYLMACVANKIIAAPFAIIGSIGVVAQIPNFHRWLKKNNIDVELLTAGEYKRTLTLFAENTEKGRKKFQEDLEKIHTAFREYVLKNRSQLDIDKVATGEHWIAKDAFDLRLVDKLATSDE”, the “soluble on expression in E. coli” value is “not soluble”.

Take “MPLLDIRHLTIEIDTPQGLVKAVDRMSLTMNEGEIRGLVGESGSGKSLVAKAIVGICKENWRVTADRMRLGNIDLLQLTPRERRRVIARDVAMIFQEPSTCLDPSEEVGRQLIESIPFRTFEGRWWERFTWRKKQAIALLHKVGIKDHKDIMSSYPYELTDGECQKVMIAMAIAAKPKLLIADEPTNDVDPITQSQILRLLSRMNQVNNTSILLIGHDLTTITQWADRITVMYCGQSVESAETAKIVAEPKHPYTAALLKAMPDFSDWIPHKQKLQSLPGSIPPLQHLPIGCRLGPRCPYAQRQCVEVPHSRWVKNHKFSCHFPLNMESPQ”: the “soluble on expression in E. coli” value was “not soluble”.

For “MGSDKIHHHHHHMTAVNIWKPEDNIPREILAILSKPHPNYQLAFLNIIQLLKTQRRTGWVDHGIDPCESISDHMYRMGLTTMLITDKNVDRNKCIRIALVHDFAESLVGDITPNDPMTKEEKHRREFETVKYLCESIIRPCSESASREILDDWLAYEKQTCLEGRYVKDIDKYEMLVQCFEYEQKYNGKKDLKQFLGAINDIKTDEVKKWTQSLLEDRQAFFDSLKE”, the “soluble on expression in E. coli” value is given as “not soluble”.

On to “MSSNCTSTTAVAVAPLSASKTKTKKKHFVCQKVKLFRASEPILSVLMWGVNHTINELSNVPVPVMLMPDDFKAYSKIKVDNHLFNKENLPSRFKFKEYCPMVFRNLRERFGIDDQDYQNSVTRSAPINSDSQGRCGTRFLTTYDRRFVIKTVSSEDVAEMHNILKKYHQFIVECHGNTLLPQFLGMYRLTVDGVETYMVVTRNVFSHRLTVHRKYDLKGSTVAREASDKEKAKDLPTFKDNDFLNEGQKLHVGEESKKNFLEKLKRDVEFLAQLKIMDYSLLVGIHDVDRAEQEEMEVEERAEDEECENDGVGGNLLCSYGTPPDSPGNLLSFPRFFGPGEFDPSVDVYAMKSHESSPKKEVYFMAIIDILTPYDTKKKAAHAAKTVKHGAGAEISTVNPEQYSKRFNEFMSNILT”, for which the “soluble on expression in E. coli” value is listed as “soluble”.

With “MNDALHIGLPPFLVQANNEPRVLAAPEARMGYVLELVRANIAADGGPFAAAVFERDSGLLIAAGTNRVVPGRCSAAHAEILALSLAQAKLDTHDLSADGLPACELVTSAEPCVMCFGAVIWSGVRSLVCAARSDDVEAIGFDEGPRPENWMGGLEARGITVTTGLLRDAACALLREYNACNGVIYNARCGVHK”, the “soluble on expression in E. coli” value is recorded as “soluble”.

On to “MKDVILVIYSLIKMTKLRSCPLDDCNSSETYFQLDKHLKNEHDGLVLLMVDPQSQWRCEQMKRHVEYVDLMSATEIPHIAEVVHHQLPYIDTLIIFRCLS”, for which the “soluble on expression in E. coli” value is given as “soluble”.

For “AIAKPTNKAQDDDAVFALSTEVNHKLDLHQSSAEALRLAGVYTRQSCVLDLYHGYRSDDEDTEPDEEDGRLQTVREYHENGMLKLMRTFVRRLRRDATDPTAESSYYDRVVEEKHYDPSGICRVDMHFALGQPYLYRKHYYPNNRLKSEKVFFVEDEETMRARKVGHWRTYYENGNIQSEIIYNKDGVRCGFCKRYAIDGAIEWVKDYTREQEERLQAFNAKRGNLDLTVTDAARVLGLEGDWCSHVVNRTFRSKCAPLHPDWRRTAGDKAGETWEEEQRTEAFIRLSRAREVLLKFLETHPRECSCERGGA”, the “soluble on expression in E. coli” value is “soluble”.

With “MMDITTLDQFKDEIYGVKGTPRRDNLERELETLRIGVQIRNARQKKEMTQAQLAERINKKRTFISKVENDGGNLTLKTLIDIVERGLGGKLNIEVKI”, the “soluble on expression in E. coli” value was “not soluble”.
